According to patent US10494417B2, “Peptide inhibitors of BCR-ABL oligomerization” (University of Utah Research Foundation, priority 2014, dated 2019):
Values joined by “and” are separate entries in the source; they are usually repeats but may differ in a detail not shown here. Equal entries are not always repeated. “Also recorded” adds a separate entry of the source.

Key:
Ba/F3-P210 cells = experiment: 7-AAD and Annexin V staining of protein-treated Ba/F3-P210 cells; format: cell-based, mouse; conditions: proteins 30 μM, imatinib 2.5 μM; 48 hours post treatment
Method: 0.5 μL of 1 mM 7-AAD (Invitrogen) was added to each sample, followed by a 45 minute incubation on ice. […] Analysis was performed using the FACS Canto-II (BD BioSciences, University of Utah Core Facility) with FACS Diva software. 7-AAD and APC were excited at 488 and 635 nm wavelengths, and emissions were detected at 660 nm. Percentage of apoptosis/necrosis was calculated by the percentage of cells that stained positive for 7-AAD and/or APC. Independent treatments were tested three times (n=3).

[1] = tested on: Ba/F3 cells expressing BCR-ABL1E255V; experiment: Annexin V/7-AAD apoptosis assay in Ba/F3 BCR-ABL1 E255V cells; format: cell-based, mouse; conditions: 72 h, CCmut3 vs EV
Method: (§1) For analysis of apoptosis and cell death, cells were pelleted and resuspended in Annexin V-binding buffer (BD Biosciences), stained with anti-Annexin V-APC (BD Biosciences or Life Technologies) and 7-AAD (BD Biosciences or Life Technologies) and analyzed on a BD FACSCanto flow cytometer. In addition to the APC and 7-AAD channels, GFP- and mCherry-positive cells were also recorded.
as §1, with “apoptosis and necrotic cell death,” for “apoptosis and cell death,”, “anti-Annexin V-APC and 7-AAD” for “anti-Annexin V-APC (BD Biosciences or Life Technologies) and 7-AAD”

K562 cells = experiment: Cell proliferation (trypan blue) of protein-treated K562 cells; format: cell-based, human; conditions: proteins 30 μM or imatinib
Method: Independent treatments were tested three times (n=3).

parental Ba/F3 cells = experiment: Proliferation of transfected parental Ba/F3 cells (MTS assay); format: cell-based, mouse; conditions: for proliferation of parental Ba/F3 cells: MTS assay at 72 and 96 h, CCmut3 vs EV
Method: Stable recombinant Ba/F3 cells transduced with wild type p210 BCR-ABL1 (Daley, G. Q., et al. (1991) Proc. Natl. Acad. Sci. U.S.A. 88, 11335-11338), the kinase domain mutants p210^T315I p210^[…], or the compound mutant p210^E255V/T315I were as previously described (La Rosee, P., et al. (2002) Cancer Res. 62, 7149-7153; O'Hare, T., et al. (2004) Blood 104, 2532-2539). These cells were cultured in RPMI with 10% FBS, 1% penicillin, streptomycin, glutamine, and 0.1% gentamycin (RPMI1640). Additionally 0.1% MycoZap™ (Lonza Bio, Basel, Switzerland) was added to prevent mycoplasma contamination. The non-transduced parental Ba/F3 cell line was grown in RPMI1640 supplemented with 20% WEHI-3B conditioned medium as a source of murine IL-3 (Dexter, T. M., et al. (1980) J. Exp. Med. 152, 1036-1047). Ba/F3 cells were transfected with plasmid DNA using the Amaxa nucleofection system (Lonza Bio), following the manufacturer's instructions. Cells were sorted on a BD FACSAria cytometer (BD Biosciences, San Jose, Calif.) for double-positive cells expressing mCherry and GFP then returned to RPMI1640 for subsequent experiments.
Cell proliferation was assessed using the CellTiter 96® AQueous One Solution Cell Proliferation Assay (MTS assay, Promega) according to manufacturer instructions. Briefly, 5,000 viable cells were added to a single well in 96-well plate in 100 μL RPMI1640. Three independent samples were seeded in duplicate for each time point. […] In some experiments, cell proliferation was assessed using a Neubauer chamber and trypan blue dye exclusion.
Stable Ba/F3 cells transduced with native (p210) BCR-ABL1, the kinase domain mutants BCR-ABL1T315I, BCR-ABL1E255V, or the compound mutant BCR-ABL1E255V/T315I were cultured. […]
Cell proliferation was assessed using a […] viability assay (MTS assay) utilizing CellTiter 96® AQueous One Solution Cell Proliferation Assay (Promega) according to manufacturer instructions. […] Cell growth was assessed by MTS assay at 72 and 96 h. […] In patient sample experiments, cell proliferation was assessed by trypan blue exclusion.

Ba/F3-p210-T315I cells = experiment: Trypan blue proliferation assay of transfected Ba/F3-p210-T315I cells; format: cell-based, mouse; conditions: CC^mut3 alone, trypan blue exclusion, 72 and 96 h
Method: Cell counts were performed using a standard light microscope.

B1: CCmut3: modified Bcr-Abl coiled-coil domain (residues 1-72) with mutations C38A, K39E, S41R, L45D, E48R, Q60E (protein)
chain: MVDPVGFAEAWKAQFPDSEPPRMELRSVGDIEQELERAEARIRRDEQRVNQERFRMIYLETLLAKEKKSYDR
induction of apoptosis/necrosis (Ba/F3-P210 cells): not statistically different from the untreated control
apoptosis, in words [1]: increase of apoptosis
increase in apoptosis [1]: 6-8 fold and > 5 fold
apoptosis, in words ([1]; listed as CC^mut3): significant shift toward the apoptotic fraction
increase in apoptosis ([1]; listed as CC^mut3): 6-8 fold
cell proliferation (K562 cells): ineffective at reducing cell proliferation and colony forming compared to untreated cells
proliferation of parental Ba/F3 cells (parental Ba/F3 cells): not affected; also recorded: No difference
proliferation of parental Ba/F3 cells (parental Ba/F3 cells; listed as CC^mut3): not affected; also recorded: No difference
toxicity in BCR-ABL1-negative cells (parental Ba/F3 cells; parental Ba/F3 cells, FIGS. 38a, c, e (proliferation, apoptosis, colony formation)): no measurable toxicity
cell proliferation (Ba/F3-p210-T315I cells): inhibit Ba/F3-p210-T315I cell proliferation
